Substitutions are numbered along the chain they refer to. Names may count otherwise.
Key:
[1] = target: T1, IM30-Venus, Venus-labeled Synechocystis IM30 (Synechocystis sp. PCC 6803, UniProt Q55707 1-267); assay: FRET or BRET; 0.2 µM purified CFP/Venus labeled IM30 rings (copurified from mixed cell pellets, 27% CFP and 63% Venus w/w), excitation 420 nm, RT, with 0-1000 µM DOPG liposomes; details: both partners purified
T1 construct: IM30 (VIPP1) of Synechocystis sp; PCC 6803; Venus fragment ligated into pRSET SynIM30 plasmid; purified as the His-tagged WT, so a His tag is likely present; also called Venus-labeled IM30 monomers; source: E. coli, copurified with IM30-CFP after mixing cell pellets prior to cell lysis
T1 sequence (looked up): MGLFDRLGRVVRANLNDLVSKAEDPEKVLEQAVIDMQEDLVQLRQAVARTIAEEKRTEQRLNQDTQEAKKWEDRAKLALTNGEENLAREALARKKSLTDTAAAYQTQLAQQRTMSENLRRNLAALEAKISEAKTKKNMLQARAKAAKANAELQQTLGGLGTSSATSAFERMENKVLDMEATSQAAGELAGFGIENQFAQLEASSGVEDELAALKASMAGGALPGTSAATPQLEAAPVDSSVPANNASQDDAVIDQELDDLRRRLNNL

[2] = target: the molecule itself; assay: atomic force microscopy; ~0.5 µM IM30 WT adsorbed on mica, 10 mM Tris or HEPES, 150 mM KCl, 25 mM MgCl2, pH 7.6; imaged in buffer at ~30 °C
[3] = target: the molecule itself; assay: SEC; Superose12 10/300 GL, 20 mM HEPES pH 7.6 with 0, 50, 100, 150 or 300 mM NaCl, 8 °C; IM30* at suitable NaCl concentrations
[4] = target: the molecule itself; assay: SEC-MALS; Superdex 200 Increase 10/300 GL, 25 mM HEPES pH 7.5, 125 mM NaCl, 5% glycerol (w/w), RT
[5] = target: the molecule itself; assay: cross-linking; disulfide between Cys227 of two protomers; SDS-PAGE of the purified A227C mutants in absence of reducing agents

B1: IM30-CFP, CFP-labeled Synechocystis IM30 (natural protein, Synechocystis sp. PCC 6803, UniProt Q55707 1-267, looked up)
chain: T1 sequence (looked up)
notes: IM30 (VIPP1) of Synechocystis sp; PCC 6803; CFP fragment ligated into pRSET SynIM30 plasmid; purified as the His-tagged WT, so a His tag is likely present; also called CFP labeled IM30 monomers; source: E. coli, copurified with IM30-Venus after mixing cell pellets prior to cell lysis
binding result [1]: binds

B2: inner membrane-associated protein of 30 kDa (IM30) wild type, N-terminally His-tagged, from Synechocystis sp. PCC 6803 (natural protein, UniProt Q55707 1-267, looked up)
chain: T1 sequence (looked up)
notes: IM30 (VIPP1) of Synechocystis sp; PCC 6803, full-length wild type; also called IM30 WT; VIPP1
binding result [2]: binds

B3: IM30* (E83A, E84A, F168A, E169A, R170A, M171A), oligomerization-impaired mutant of Synechocystis IM30 (natural protein, Synechocystis sp. PCC 6803, UniProt Q55707 1-267, looked up)
chain: T1 sequence (looked up) with E83A, E84A, F168A, E169A, R170A, M171A
notes: IM30 (VIPP1) of Synechocystis sp; PCC 6803, full length, with six alanine substitutions made by site-directed mutagenesis; For SEC-SAXS the protein was heated to 50 °C, cooled slowly and buffer-exchanged by SEC before the run; also called IM30* dimers
stoichiometry N [3]: 2

B4: IM30_H3b-7 (amino acids 147-267), WT fragment of Synechocystis IM30 (domain or fragment, Synechocystis sp. PCC 6803, UniProt Q55707 147-267, looked up)
chain: KANAELQQTLGGLGTSSATSAFERMENKVLDMEATSQAAGELAGFGIENQFAQLEASSGVEDELAALKASMAGGALPGTSAATPQLEAAPVDSSVPANNASQDDAVIDQELDDLRRRLNNL
notes: IM30 (VIPP1) of Synechocystis sp; PCC 6803, amino acids 147-267 (helices 3b-7); also called helices 3b-7; intrinsically disordered C-terminus
stoichiometry N [4]: 2

B5: IM30*_A227C (E83A, E84A, F168A, E169A, R170A, M171A, A227C) (natural protein, Synechocystis sp. PCC 6803, UniProt Q55707 1-267, looked up)
chain: T1 sequence (looked up) with E83A, E84A, F168A, E169A, R170A, M171A, A227C
notes: IM30 (VIPP1) of Synechocystis sp; PCC 6803, full length, the six alanine substitutions of IM30* and A227C in the linker between helix 6 and 7; also called A227C mutant of IM30*
binding result [5]: binds

B6: IM30_A227C, A227C mutant of Synechocystis IM30 WT (natural protein, Synechocystis sp. PCC 6803, UniProt Q55707 1-267, looked up)
chain: T1 sequence (looked up) with A227C
notes: IM30 (VIPP1) of Synechocystis sp; PCC 6803, full length, with A227C; the methods print '(A272C)' in brackets after the name IM30_A227C, the results and the legend say A227C; also called A227C mutant of IM30 WT
binding result [5]: binds
